Results on 26 substances are retold here after US20200371101A1.

pEC50: −log10 of the molar value.

For test [1], the target named is His-tagged IDO1 human recombinant protein (71182, BPS Biosciences) (human) (UniProt P14902). Nature of the test: ELISA: biotin-PEG3 macrocycle on NeutrAvidin plate, His-tagged human IDO1 titrated, AP-conjugated anti-6XHis antibody, fluorescence. On the technique in general: ELISA stands for enzyme-linked immunosorbent assay.
Test [2] shares this target. Nature of the test: sandwich ELISA: biotinylated macrocycle on NeutrAvidin plate, His-tagged IDO1 titrated, anti-6XHis-AP detection.
For test [3] the target is unchanged. Kind of test: ELISA, immobilized macrocycle, human IDO1 titrated.
For test [4] the target is unchanged. Nature of the test: cell-based or functional assay.
The target in test [5] is murine IDO1 protein (mouse) (UniProt P28776). Kind of test: ELISA, immobilized macrocycle, mouse IDO1 titrated.
Test [6] addresses His-tagged IDO1 human recombinant protein (71182, BPS Biosciences) (human) (UniProt P14902). Kind of test: ELISA: biotinylated peptide on NeutrAvidin plate, 6xHis-tagged human IDO1 titrated.
Test [7] shares this target. Nature of the test: binding analysis, method not named.
For test [8] the target is unchanged. Kind of test: sandwich ELISA: 200 nM biotinylated macrocycle immobilized on NeutrAvidin plate, His-tagged IDO1 titrated, anti-6XHis-AP detection.

Sequence of murine IDO1 protein (mouse) (P28776 2-406 limits assumed): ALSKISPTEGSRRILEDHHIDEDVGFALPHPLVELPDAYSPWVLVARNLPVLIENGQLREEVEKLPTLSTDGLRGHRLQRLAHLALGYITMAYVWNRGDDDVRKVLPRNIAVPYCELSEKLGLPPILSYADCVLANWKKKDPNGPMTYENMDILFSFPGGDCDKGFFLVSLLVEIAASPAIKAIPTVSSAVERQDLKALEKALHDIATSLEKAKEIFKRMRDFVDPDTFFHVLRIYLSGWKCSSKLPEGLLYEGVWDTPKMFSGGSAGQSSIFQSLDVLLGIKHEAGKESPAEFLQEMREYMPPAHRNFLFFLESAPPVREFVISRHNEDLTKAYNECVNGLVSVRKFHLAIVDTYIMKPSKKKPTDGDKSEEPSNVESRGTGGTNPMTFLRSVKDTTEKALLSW
Sequence of His-tagged IDO1 human recombinant protein (71182, BPS Biosciences) (human) (P14902 2-403 limits assumed): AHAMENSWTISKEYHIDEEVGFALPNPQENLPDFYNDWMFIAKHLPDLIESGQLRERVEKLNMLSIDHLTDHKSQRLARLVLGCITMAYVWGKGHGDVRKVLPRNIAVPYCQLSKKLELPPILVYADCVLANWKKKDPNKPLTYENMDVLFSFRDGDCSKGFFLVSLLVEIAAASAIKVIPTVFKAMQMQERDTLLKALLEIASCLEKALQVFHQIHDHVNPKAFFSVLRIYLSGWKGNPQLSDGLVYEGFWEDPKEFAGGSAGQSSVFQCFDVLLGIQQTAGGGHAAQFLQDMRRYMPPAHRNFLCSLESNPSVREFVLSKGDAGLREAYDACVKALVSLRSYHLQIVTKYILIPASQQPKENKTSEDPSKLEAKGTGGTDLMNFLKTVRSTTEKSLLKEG

In general, pEC50 refers to the EC50 on a negative log10 scale, so that one unit is a factor of ten. On to nlf(Me-Trp)a (peptide), for which the pEC50 in test [1] is 6.98.

In the case of biotin-PEG3-Cy(spww(F-Phe)) (peptide), the values for the pEC50 in test [2], in test [3] and in test [5] were 7.19, 7.07 and 7.36, respectively. Further, the IC50, IDO1 Fluorogenic Inhibitor Screening Assay (enzyme inhibition) in test [4] was above 40000 nM.

As for biotin-PEG3-Cy(nsfr(Me-Trp)) (peptide), the negative-log EC50 (pEC50) in test [2] and in test [6] was 6.91 each time.

For the substance n-f(Me-Trp)(F-Phe) (peptide), the negative logarithm of the EC50 (pEC50) in test [1] was 6.89.

For the substance spww (peptide), in test [1], the negative-log EC50 (pEC50) is 6.84.

biotin-PEG3-Cy(nlw(Me-Trp)r) (peptide): the negative-log EC50 (pEC50) was 7.37 in test [2], 7.29 in test [3] and 7.32 in test [5].

Consider Biotin-PEG3-Cy(spaw(F-Phe)) (peptide), for which the negative logarithm of the EC50 (pEC50) in test [1] is 6.95.

Regarding spwwa (peptide), the negative-log EC50 (pEC50) in test [1] was 6.95.

Turning to fra(Me-Trp)s (peptide), in test [1], the negative-log EC50 (pEC50) was 6.97.

Turning to “Biotin-PEG3-Cy(lf(Me-Trp)(F-Phe)) (peptide)”, the pEC50 in test [1] was 7.41.

Take biotin-PEG3-Cy(frf(Me-Trp)s) (peptide): the pEC50 in test [2] is 7.70; in test [3], 7.74; in test [6] it was 7.70; in test [5], 7.44. In addition, the IC50, IDO1 Fluorogenic Inhibitor Screening Assay (enzyme inhibition) in test [4] is above 40000 nM.

biotin-PEG3-Cy(nsh(F-Phe)r) (peptide): the pEC50 in test [2] is 7.17.

Turning to Biotin-PEG3-Cy(arf(Me-Trp)s) (peptide), the pEC50 in test [1] is 7.10.

Take alf(Me-Trp)(F-Phe) (peptide): the negative-log EC50 (pEC50) in test [1] was 7.30.

In the case of “biotin-PEG3-Cy(nlf(Me-Trp)(F-Phe)) (peptide)”, the negative-log EC50 (pEC50) in test [2] is 7.70; in test [3] it was 7.72; in test [7] it was 7.36; in test [5] it was 7.05.

Turning to nlf(Me-Trp) (peptide), in test [1], the negative-log EC50 (pEC50) was 7.35.

Regarding nla(Me-Trp)(F-Phe) (peptide), the pEC50 in test [1] was 6.94.

As to Biotin-PEG3-Cy(frf(Me-Trp)) (peptide), the pEC50 in test [1] is 7.92.

For pww(F-Phe) (peptide), the pEC50 in test [1] is 6.98.

For apww(F-Phe) (peptide), in test [1], the pEC50 was 6.97.

For the substance naf(Me-Trp)(F-Phe) (peptide), the negative-log EC50 (pEC50) in test [1] is 7.09.

As to Biotin-PEG3-Cy(frf(Me-Trp)a) (peptide), in test [1], the pEC50 was 7.24.

As for nlfa(F-Phe) (peptide), the negative logarithm of the EC50 (pEC50) in test [1] was 7.16.

As to Biotin-PEG3-Cy(saww(F-Phe)) (peptide), the negative logarithm of the EC50 (pEC50) in test [1] was 7.38.

In the case of Biotin-PEG3-Cy(sww(F-Phe)) (peptide), the negative logarithm of the EC50 (pEC50) in test [1] was 7.15.

On to biotin-PEG3-Cy(rys(Me-Trp)r) (peptide), for which the negative logarithm of the EC50 (pEC50) in test [8] is 7.09; in test [3], 7.04; in test [5] it was 7.77. Moreover, the IC50, IDO1 Fluorogenic Inhibitor Screening Assay (enzyme inhibition) in test [4] was above 40000 nM.
